Measurements: the supplement of paper PMC7125110
± gives the standard error. For some assays here: Fewer inactive variants are shown than the library holds.

B1: glmS ribozyme (parent)
chain: AUAAAAGCGCCAGAACUACAGAAAUGUAGUUGACGAGGAGGAGGUUUAUCGAAUUUUCGGCGGAUGCCUCCAAA

Legend:
Conditions in all cases: with glucosamine-6-phosphate
glucosamine-6-phosphate [1] = variants of: B1; experiment: kcat; higher = faster cleavage; RNA array
Outline: (§1)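 Barcoded ribozyme variants were transcribed in situ on sequenced MiSeq chips by E. coli RNA polymerase. At 37 °C, a hybridised Cy3 probe tracked them while glucosamine-6-phosphate (40 μM to 10 mM) in HEPES/KCl/Mg(OAc)2 buffer flowed in and tiles were imaged over ~14 h. Per-tile medians of signals normalised to baseline and to non-cleaving reference variants were fit to one- or two-exponential decays, giving kobs. kcat and KM came from weighted Michaelis–Menten fits across concentrations.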

glucosamine-6-phosphate [2] = variants of: B1; experiment: KM; higher = weaker cofactor use; RNA array
Outline: as §1

glucosamine-6-phosphate [3] = variants of: B1; experiment: self-cleavage kobs at 640 uM GlcN6P; higher = faster cleavage; RNA array
Outline: as §1

glucosamine-6-phosphate [4] = variants of: B1; experiment: self-cleavage kobs at 2500 uM GlcN6P; higher = faster cleavage; RNA array
Outline: as §1

glucosamine-6-phosphate [5] = variants of: B1; experiment: self-cleavage kobs at 10000 uM GlcN6P; higher = faster cleavage; RNA array
Outline: as §1

glucosamine-6-phosphate [6] = variants of: B1; experiment: self-cleavage kobs at 40 uM GlcN6P; higher = faster cleavage; RNA array
Outline: as §1

glucosamine-6-phosphate [7] = variants of: B1; experiment: self-cleavage kobs at 160 uM GlcN6P; higher = faster cleavage; RNA array
Outline: as §1

Variant	kcat (glucosamine-6-phosphate [1]) [s⁻¹]	KM (glucosamine-6-phosphate [2]) [µM]	self-cleavage kobs at 640 uM GlcN6P (glucosamine-6-phosphate [3]) [s⁻¹]	self-cleavage kobs at 2500 uM GlcN6P (glucosamine-6-phosphate [4]) [s⁻¹]	self-cleavage kobs at 10000 uM GlcN6P (glucosamine-6-phosphate [5]) [s⁻¹]	self-cleavage kobs at 40 uM GlcN6P (glucosamine-6-phosphate [6]) [s⁻¹]	self-cleavage kobs at 160 uM GlcN6P (glucosamine-6-phosphate [7]) [s⁻¹]
U45C U65G	0.000191 ± 3.7e-05	1810 ± 840	4.57e-05 ± 9.8e-06	0.000188 ± 4e-05	0.000154 ± 2e-05	–	–
U45A U47G	0.0105 ± 0.0027	1910 ± 690	0.00261 ± 0.00054	0.00915 ± 0.0018	0.00802 ± 0.0015	0.000279 ± 6e-05	0.000689 ± 0.00013
U45C U55G	0.0035 ± 0.0008	2770 ± 960	0.000502 ± 9.9e-05	0.00165 ± 0.00048	0.00283 ± 0.00033	6.05e-05 ± 8.1e-06	–
A42U C70A	0.00013 ± 6.8e-06	813 ± 290	–	9.98e-05 ± 1.2e-05	0.00012 ± 9.1e-06	–	–
G43A U56A	1.8e-05 ± 3.9e-06	–	–	–	–	–	–
U46A C70A	0.000184 ± 2.2e-05	633 ± 260	0.000115 ± 2.6e-05	0.000146 ± 2.7e-05	0.000167 ± 2.9e-05	–	–
G44A U55G	0.000367 ± 0.00015	–	0.000141 ± 3.3e-05	0.000228 ± 4.2e-05	–	–	–
U45A A64C	0.000366 ± 4.6e-05	2520 ± 570	7.26e-05 ± 1.9e-05	0.000193 ± 3.8e-05	0.000277 ± 7.6e-05	–	–
U46C U47G	0.0024 ± 0.00028	2600 ± 440	0.000457 ± 8e-05	0.0014 ± 0.00026	0.00183 ± 0.00026	3.18e-05 ± 8e-06	0.00015 ± 2.6e-05
U46G U47C	0.00353 ± 0.0011	981 ± 440	0.00158 ± 0.00026	0.00225 ± 0.00047	0.00332 ± 0.0012	0.000104 ± 2.7e-05	0.000744 ± 0.00015
U45A C50U	0.000477 ± 0.00018	–	–	3.25e-05 ± 1.4e-05	0.000107 ± 1.3e-05	–	–
U45A C50A	1.56e-05 ± 1.5e-06	–	–	–	–	–	–
U46C	0.00387 ± 0.00034	1410 ± 170	0.00126 ± 3.5e-05	0.00342 ± 0.00018	0.00329 ± 7.7e-05	0.000108 ± 2.5e-06	0.000364 ± 1.3e-05
U46G	0.0111 ± 0.0013	2110 ± 340	0.00241 ± 6.1e-05	0.00589 ± 0.00015	0.00965 ± 0.00026	0.000228 ± 4.5e-06	0.000671 ± 2.7e-05
U46A	0.00402 ± 0.00054	1880 ± 330	0.000926 ± 2.8e-05	0.00341 ± 0.00031	0.00344 ± 9.1e-05	9.25e-05 ± 2.1e-06	0.000271 ± 1.3e-05
U46G A53G	0.00499 ± 0.0025	–	0.00165 ± 0.00049	0.00267 ± 0.00089	0.00811 ± 0.0028	0.000271 ± 7.8e-05	0.000482 ± 0.00011
U46A U47C	0.00192 ± 0.00044	2240 ± 840	0.00034 ± 5.6e-05	0.00121 ± 0.00021	0.00157 ± 0.00019	5.61e-05 ± 1.2e-05	0.000141 ± 2.8e-05
U46A U47A	0.00774 ± 0.0022	2510 ± 920	0.00159 ± 0.00033	0.00385 ± 0.00067	0.00631 ± 0.0017	0.000207 ± 4.9e-05	0.000426 ± 6.1e-05
U45G C70A	0.000251 ± 5.4e-05	–	0.000111 ± 2.5e-05	0.000364 ± 0.00011	0.000215 ± 4.3e-05	–	–
U45G C70U	0.00681 ± 0.0021	562 ± 260	0.00288 ± 0.0004	0.00473 ± 0.00096	0.0102 ± 0.0013	0.000542 ± 5.6e-05	0.00139 ± 0.00018
U46C C67A	0.000818 ± 0.00012	1380 ± 390	0.000284 ± 5.6e-05	0.00062 ± 0.00012	0.000676 ± 0.00011	3.57e-05 ± 1.7e-05	6.58e-05 ± 2.1e-05
U46C C67G	0.000658 ± 5.5e-05	1560 ± 320	0.000154 ± 5.6e-05	0.000431 ± 6.7e-05	0.000561 ± 6.7e-05	–	6.94e-05 ± 1.9e-05
U46A U55G	0.0019 ± 0.00044	1350 ± 440	0.000893 ± 0.00011	0.001 ± 0.00022	0.00169 ± 0.00022	5.8e-05 ± 7.5e-06	0.000169 ± 2.3e-05
U46G U49G	9.12e-05 ± 1.4e-05	–	–	8.04e-05 ± 1.8e-05	7.66e-05 ± 1.7e-05	< 1e-05	–
U45G U54A	0.00862 ± 0.0024	2110 ± 950	0.00206 ± 0.00071	0.00456 ± 0.0014	0.00721 ± 0.0012	0.000294 ± 6.7e-05	0.000437 ± 0.00014
G43A A53G	8.84e-05 ± 2.5e-05	–	–	0.000132 ± 2.8e-05	7.56e-05 ± 8.5e-06	–	–
G44A A53U	0.000232 ± 3.9e-05	1820 ± 680	5.47e-05 ± 1.1e-05	0.000174 ± 2.8e-05	0.000182 ± 2.7e-05	–	–
G44A A53C	0.000111 ± 2.5e-05	–	4.9e-05 ± 2.1e-05	5.83e-05 ± 1.3e-05	0.0001 ± 1.9e-05	–	–
